# Data: publication PMC3322389 (Structure(London, England:1993), 2012)
# B1: Aureochrome1 LOV domain (AuLOV), residues 176-337 of V. frigida Aureochrome1 (domain or fragment, UniProt A8QW55 176-337, looked up)
# chain: DSLIAQCSPEADTLLTDNPSKANRILEDPDYSLVKALQMAQQNFVITDASLPDNPIVYASRGFLTLTGYSLDQILGRNCRFLQGPETDPRAVDKIRNAITKGVDTSVCLLNYRQDGTTFWNLFFVAGLRDSKGNIVNYVGVQSKVSEDYAKLLVNEQNIEYK
# Target: the molecule itself
# Assay: AUC
protein,measurement,value
B1,stoichiometry N,2
